Experimental findings from the domain aggregation screens of Martell et al. (2025) are described below.
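Note: 20 min heating vs room temperature control held 20 min.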

This series is described as follows: soluble fraction after stress (log2 fold change); higher = more stays soluble; pooled small domains, quantitative proteomics. To be noted: stress: 75 degC.
As for “HMQQLDDDTVAYVADNGIAVKSKNGKELSVDTSGLSYDIIMDMFRNLPRNGDFFSSKYWSDNIQKAQAR”, the “soluble fraction (log2)” value came out at 0.447. Next, “HMQQLIEFSVTKGHPWINKKIMDLNLPENQLILTIQREGHVVSAEGKTIILENDRITISTDDR”: -1.26; “HMQQPVVVQQNQTVRVVTGGPGFQVANEGRALNNGLAGQVVQVRLGNGQIISGIARAGGIVEIL”: -0.017. For “HMQQSQLDDIKSVVGGDEGYNKLREWTQANVPDETLKAFDKILDTQDPTMIKVAVEGFAAQMRQAE” the value was -0.232. For “HMQQTAEDWKNKGDSLTAQSEYVEAIAAYDEAIRLDPNYAPAWSNKGNALKNLGEYYKAIQAYDEAIRL” the value was 0.104; for “HMQQYLDAYDKALAFGIAMNKLPSYENLTLDDKEDVDKLKEIYDGMSNYEKTFVAKDFTDKLDRYVKRIE”, 0.347. As to “HMQRADYLILYYIKMQAEQHPDSKVYLADLAAVMGLKVTELSKAVEKLQDNGFVAWKTDREAGRTYVELS”, the “soluble fraction (log2)” value was -3.13. For “HMQRIFIDNHDRILYYSNPAGYIAGKEAVVDTMFQTQELERFLQKQSLSIRWEDGVYDRLLLGQ”, the “soluble fraction (log2)” value is -0.0579.

As for “HMQRRHESTPIPADFDYAAVRGLSAEVQQKLERVRPLSIGQAQRIPGMTPAAISLLLVHLERQRRSRV”, the “soluble fraction (log2)” value is -1.24. For the sequence “HMQRSVKNNDTVQVHYTGKLTNGQIFDSSIDKQPLEFQLGQGQIIPGFEKGLIDMTVSEKKTITIPEAEAY”, the “soluble fraction (log2)” value stood at 0.193. For the sequence “HMQSAEMTLDREGQPVQVRVELTGNEARITFLSDQEQTREALDAGMAQLRELLEQQGMVLAGVTV”, the “soluble fraction (log2)” value was -0.00816. Next, “HMQSDQLSDREREILRLIGSGRTNQEISQELQVSGSTVRTHLQHILDKLGLENRNQAVLYAIRIGLAAPP”: -0.163; “HMQSHGSRIWTDITGNFTREASFIELAEGKVTLQLTDGRRTIISFEILSKKDQEYVLDIGDS”: -2.77. As for “HMQSKDDLLDTFRVVKGNAALLNDQNKKLIRSLKVSSFGFTGITDQAAEVKKEMPDVLLEKASIEDILF”, the “soluble fraction (log2)” value is 0.0597. For “HMQSLAAKINGYIVAQRTSIAAIAKEIGYSRVTVSRYLAGKYDSDPTGIEAKLAAFLAGQTGEE” the value was -3.99; for “HMQSNIHELQKKLNEALQALSEDHRAVVTMFDIQGMPHAEISKILGVSEGTVRSRLYYAHQQLQGHL”, -1.11.

For the sequence “HMQSRYALLAGMLRARITEGDWVPGSAIPAETVLAKEHGVALGTMRQAIALLVSQGLLERQHGRGTFVRS”, the “soluble fraction (log2)” value is -1.58. For “HMQSSDQTDNIYENAVSIVLETGKASASHLQRVLGIDYNLAAHLIDKMEDGGLLSPPNYLGHRDVYGYT” the value was 0.317.

With “HMQTFNADDIEPIIKEILQENPKAISDFLTGNENVVKFLLGQVMKNTKGKANPKVIEELLINQLRELNN”, the “soluble fraction (log2)” value is -0.235. Take “HMQTGYHVRITASTLNVRRDHSASSAVATQVRRGEVYTIVDEYNNGGTLWGKLKSGAGWIALKYTQS”: the “soluble fraction (log2)” value is -3.39. For the sequence “HMQTTITITNTVTGQKAQFPPPFNPMSLSKIGVDETFEKEVFVDGVDTFGYGLDGYLTFYELKDFLRSYQ”, the “soluble fraction (log2)” value was -2.61.

As to “HMQVEYTRGELLQDLKEENVLYATITPSRETPTGEVDFVFKDKSIKTLYVTDVSEIEGLLMDYGIDPEVKK”, the “soluble fraction (log2)” value is -0.454. For “HMQVITEPFQEKYREFINMSTVTQRLEERETLSFTAQTVEGRWLTIIIVPQGYDKTGKLSTVLVANR” the value was 0.274.

On to “HMQVSDEGAIQLLVQKAIEENPQAIEAFRGGKTSALGPVVGWVMKQSKGAANPTMVKTLLEKAI”, for which the “soluble fraction (log2)” value was 0.154.

“HMQVVVEKSKEKVIISGNQYYIHIVKKGETAFSIAKAYGITVDELVKNNPSAATVLKEGQALRIPVVE”: the “soluble fraction (log2)” value came to 0.0365. Regarding “HMQYDESSQLGERFLNQALNALKADPDKVGDAQWEKLLKENSAKSRQEVLADIGLGKQLAIVIARELLS”, the “soluble fraction (log2)” value is -0.148. For the sequence “HMQYPSSLDSRAKQSLYDNLERNEILALALDNVIQSNKLDGWRDGGIKERKLRLAINNLLKNDEHTDNIME”, the “soluble fraction (log2)” value is -0.0341.

“HMQYQIITENGKQYYLYTVQKSEGFYSIGKRFEITNDEIIKANPEAALGLKLGQVLKIPVYK”: the “soluble fraction (log2)” value is -2.4.

With “HMRAAKSEDTRTRLIEGGMALFGQKGYNATGIKDITDAAGVPKGSFYNYFASKEDFGAEIIHSY”, the “soluble fraction (log2)” value came to 0.14.

On to “HMRAEELEQFVERLKNEVMNNFPLKELSDNELREKIENLVEIRLANVYVSIEQRVAIAEQIYSSIR”, for which the “soluble fraction (log2)” value was -1.1.

With “HMRAERVQITDPYIELHTGPGRGFPIFFVAPREQWISIELRHTDWFKVRAVGGQVGWVQRKQLEST”, the “soluble fraction (log2)” value is -1.56.

As for “HMRAGHDFEALKHIESSLDKHLTDEGIKIKSEKRGAIVARWYQSHVEGREVTDDDVHTWIELFF”, the “soluble fraction (log2)” value is -2.82.

Regarding “HMRAPIGFRISNRRKSLKISQVALARLVGISPSYLNLIENNKRDVGGALLQRVALHLNIDIDDL”, the “soluble fraction (log2)” value is -3.13. Next, “HMRARTLSTTGGESLLTLAESLYPDDDRARARFIEATAAANPKLFADIAALTRVLPAGTTLRMPDLRA”: -0.0128; “HMRARTQYWPFVEEKAAELKLPLHLVNVEPLFGEQKVVVHYTANGRIDFRELVHLLARRFHARIEMR”: 0.0673. For “HMRATLTDETARVVQEPTSESISLTSLRKGEEFEIGKVIRKKKEVWVTVTTSSGVKGYISGDTHIF” the value was 0.00739. For “HMRAVFEQLRIGQTLAGVVKAQEKGFSLVEIDGQTVAMRLPHPAAVGDTLRLRFAGHMPQAVFLLES” the value was -1.99. With “HMRAVPSIAFVTQKLIEQGVTMEQLVRSLLLDHEEYENDDSLERTADELFGKARMIISNYTPE”, the “soluble fraction (log2)” value was -1.08. For “HMRDADRYAFMQENVEDFAKDMRRKHMTYDVLYEEYIRRTDNPYGYTQFKAIVQEYEKNHDYK” the value was -0.367; for “HMRDGYEKPTEVGEGGRNPAMLSYIGHLRAKGHLSEEDIRSMAHGFNATTFDPPLDRDEVDGLVSRY”, 0.106. Next, “HMRDITAQSNASELYFEERDLEAFIEKLERLYPEIRYVNRLMIHSWGQQVVRFFDPDGNLIEVGTP”: -0.146; “HMRDKTMLGNVIRTRRKKMNLTLEELSKQVGITSGGLSQIERGLVDPSLSVLRRISRALNLPMNVMFSE”: -1.32. Next, “HMRDLAEAETILDALPTRLRKIVRWRHLEGLSQTEIAARLEISQMHVSRLYRRAISMIHASLADD”: -0.289; “HMREEQELFRKLLEVNGIGPKVAAGMLAGGRPEDVVSAIRREDVAWLTKLPGIGRKTAQRIVLDLKDKLD”: -0.331; “HMREPQMVTVNGDKVTHGHAYRSNVNPEDWYFTARINGQQLKPQKMEPADVAAYDKKEIGVPELMQR”: -0.275.

In the case of “HMRESPYRRVAKFLLLIGTAEAAKIVSRLDQDQVEKVMLELSGIRSVPRDEATVILAEFESLLQQAR”, the “soluble fraction (log2)” value was -2.03. Take “HMRESRLFQILYQLLTKKKVTAANLAKQFEVSVRTIYRDIDALSSSGIPIYASQGKNGGIQLDEDF”: the “soluble fraction (log2)” value is -0.992.

Take “HMRETELPVTIISAGRILAENLHLAGRDGGWLEAELKRRSLTAEQVLLLTVDAAGTVYLVRKEDL”: the “soluble fraction (log2)” value is -2.1. In the case of “HMREWPLWEIFIRGQHGLNHRHVGSLHAPDAAMAIGNARDVYTRRNEGVSIWAVRSADVVASVPSE”, the “soluble fraction (log2)” value is -2.08. Next, “HMRGADNAASILKEVGPHPEDGKPITVRSGRYGPYVKHGTTNATLPKDIKPEEITLDEAIALINERVAKG”: 0.018.
